Measurements from patent US20220288223.

Assays:
[1] = biological target: RACPP with substrate PLGC(me)AG
[2] = biological target: RACPP with substrate PLGLEEA
[3] = biological target: RACPP with substrate TIAHLA
[4] = biological target: RACPP with substrate TLSLEH
[5] = biological target: RACPP with substrate YGRAAA
[6] = biological target: RACPP with substrate SYPYKY
[7] = biological target: RACPP with substrate KLRFSQK
[8] = biological target: RACPP with substrate Nle-TPRSFL
[9] = biological target: RACPP with substrate TGRAAA
[10] = biological target: RACPP with substrate GVAYSGA
[11] = biological target: RACPP with substrate RLQLK(Ac)L

B1: MMP-2 (protein)
chain: YNFFPRKPKWDKNQITYRIIGYTPDLDPETVDDAFARAFQVWSDVTPLRFSRIHDGEADIMINFGRWEHGDGYPFDGKDGLLAHAFAPGTGVGGDSHFDDDELWTLGEGQVVRVKYGNADGEYCKFPFLFNGKEYNSCTDTGRSDGFLWCSTTYNFEKDGKYGFCPHEALFTMGGNAEGQPCKFPFRFQGTSYDSCTTEGRTDGYRWCGTTEDYDRDKKYGFCPETAMSTVGGNSEGAPCVFPFTFLGNKYESCTSAGRSDGKMWCATTANYDDDRKWGFCPDQGYSLFLVAAHEFGHAMGLEHSQDPGALMAPIYTYTKNFRLSQDDIKGIQELYGASPDIDLGTGPTPTLGPVTPEICKQDIVFDGIAQIRGEIFFFKDRFIWRTVTPRDKPMGPLLVATFWPELPEKIDAVYEAPQEEKAVFFAGNEYWIYSASTLERGYPKPLTSLGLPPDVQRVDAAFNWSKNKKTYIFAGDKFWRYNEVKKKMDPGFPKLIADAWNAIPDNLDAVVDLQGGGHSYFFKGAYYLKLENQSLKSVKFGSIKSDWLGC
Kcat/Km [1]: 36400
Kcat/Km [2]: 2420
Kcat/Km [3]: 16200
Kcat/Km [4]: 11400
Kcat/Km [5]: 426

B2: MMP-12 (protein)
chain: GPVWRKHYITYRINNYTPDMNREDVDYAIRKAFQVWSNVTPLKFSKINTGMADILVVFARGAHGDFHAFDGKGGILAHAFGPGSGIGGDAHFDEDEFWTTHSGGTNLFLTAVHEIGHSLGLGHSSDPKAVMFPTYKYVDINTFRLSADDIRGIQSLYGDPKENQRLPNPDNSEPALCDPNLSFDAVTTVGNKIFFFKDRFFWLKVSERPKTSVNLISSLWPTLPSGIEAAYEIEARNQVFLFKDDKYWLISNLRPEPNYPKSIHSFGFPNFVKKIDAAVFNPRFYRTYFFVDNQYWRYDERRQMMDPGYPKLITKNFQGIGPKIDAVFYSKNKYYYFFQGSNQFEYDFLLQRITKTLKSNSWFGC
Kcat/Km [1]: 9170
Kcat/Km [2]: 10500
Kcat/Km [6]: 14000
Kcat/Km [3]: 2320
Kcat/Km [4]: 1400

B3: Plasmin (protein)
chain: KVYLSECKTGNGKNYRGTMSKTKNGITCQKWSSTSPHRPRFSPATHPSEGLEENYCRNPDNDPQGPWCYTTDPEKRYDYCDILECEEECMHCSGENYDGKISKTMSGLECQAWDSQSPHAHGYIPSKFPNKNLKKNYCRNPDRELRPWCFTTDPNKRWELCDIPRCTTPPPSSGPTYQCLKGTGENYRGNVAVTVSGHTCQHWSAQTPHTHNRTPENFPCKNLDENYCRNPDGKRAPWCHTTNSQVRWEYCKIPSCDSSPVSTEQLAPTAPPELTPVVQDCYHGDGQSYRGTSSTTTTGKKCQSWSSMTPHRHQKTPENYPNAGLTMNYCRNPDADKGPWCFTTDPSVRWEYCNLKKCSGTEASVVAPPPVVLLPDVETPSEEDCMFGNGKGYRGKRATTVTGTPCQDWAAQEPHRHSIFTPETNPRAGLEKNYCRNPDGDVGGPWCYTTNPRKLYDYCDVPQCAAPSFDCGKPQVEPKKCPGRVVGGCVAHPHSWPWQVSLRTRFGMHFCGGTLISPEWVLTAAHCLEKSPRPSSYKVILGAHQEVNLEPHVQEIEVSRLFLEPTRKDIALLKLSSPAVITDKVIPACLPSPNYVVADRTECFITGWGETQGTFGAGLLKEAQLPVIENKVCNRYEFLNGRVQSTELCAGHLAGGTDSCQGDSGGPLVCFEKDKYILQGVTSWGLGCARPNKPGVYVRVSRFVTWIEGVMRNN
Kcat/Km [7]: 6510
Kcat/Km [8]: 13000
Kcat/Km [6]: 19400
Kcat/Km [9]: 4160
Kcat/Km [5]: 7720

B4: Chymase (protein)
chain: IIGGTECKPHSRPYMAYLEIVTSNGPSKFCGGFLIRRNFVLTAAHCAGRSITVTLGAHNITEEEDTWQKLEVIKQFRHPKYNTSTLHHDIMLLKLKEKASLTLAVGTLPFPSQFNFVPPGRMCRVAGWGRTGVLKPGSDTLQEVKLRLMDPQACSHFRDFDHNLQLCVGNPRKTKSAFKGDSGGPLLCAGVAQGIVSYGRSDAKPPAVFTRISHYRPWINQILQAN
Kcat/Km [10]: 48100
Kcat/Km [7]: 1970
Kcat/Km [6]: 16400
Kcat/Km [3]: 11500
Kcat/Km [4]: 2270

B5: CathepsinK (protein)
chain: APDSVDYRKKGYVTPVKNQGQCGSCWAFSSVGALEGQLKKKTGKLLNLSPQNLVDCVSENDGCGGGYMTNAFQYVQKNRGIDSEDAYPYVGQEESCMYNPTGKAAKCRGYREIPEGNEKALKRAVARVGPVSVAIDASLTSFQFYSKGVYYDESCNSDNLNHAVLAVGYGIQKGNKHWIIKNSWGENWGNKGYILMARNKNNACGIANLASFPKM
Kcat/Km [10]: 1070
Kcat/Km [7]: 7440
Kcat/Km [8]: 2350
Kcat/Km [1]: 2640
Kcat/Km [2]: 787
Kcat/Km [11]: 2870
Kcat/Km [3]: 833
Kcat/Km [4]: 497
